Measurements taken from US20230087600A1.

T1: mouse IL-10 receptor (IL-10R) on T cells and B cells of C57BL/6 mouse splenocytes (mouse) (UniProt Q61727)
T1 sequence (looked up) 1: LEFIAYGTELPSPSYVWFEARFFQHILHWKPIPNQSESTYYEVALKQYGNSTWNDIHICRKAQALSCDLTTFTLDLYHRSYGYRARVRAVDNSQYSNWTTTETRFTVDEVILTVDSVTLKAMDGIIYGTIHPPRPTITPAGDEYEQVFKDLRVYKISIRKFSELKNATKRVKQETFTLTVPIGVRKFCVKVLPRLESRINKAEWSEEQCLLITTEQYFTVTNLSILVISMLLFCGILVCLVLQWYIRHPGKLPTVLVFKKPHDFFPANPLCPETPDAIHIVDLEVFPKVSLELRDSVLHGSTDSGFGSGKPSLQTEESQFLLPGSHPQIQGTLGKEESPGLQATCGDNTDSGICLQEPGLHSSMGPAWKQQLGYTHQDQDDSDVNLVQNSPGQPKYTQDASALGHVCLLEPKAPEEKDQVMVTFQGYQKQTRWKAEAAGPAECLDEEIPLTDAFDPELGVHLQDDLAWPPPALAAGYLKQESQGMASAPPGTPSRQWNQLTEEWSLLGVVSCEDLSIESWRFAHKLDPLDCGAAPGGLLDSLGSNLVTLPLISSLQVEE
T1 sequence (looked up) 2: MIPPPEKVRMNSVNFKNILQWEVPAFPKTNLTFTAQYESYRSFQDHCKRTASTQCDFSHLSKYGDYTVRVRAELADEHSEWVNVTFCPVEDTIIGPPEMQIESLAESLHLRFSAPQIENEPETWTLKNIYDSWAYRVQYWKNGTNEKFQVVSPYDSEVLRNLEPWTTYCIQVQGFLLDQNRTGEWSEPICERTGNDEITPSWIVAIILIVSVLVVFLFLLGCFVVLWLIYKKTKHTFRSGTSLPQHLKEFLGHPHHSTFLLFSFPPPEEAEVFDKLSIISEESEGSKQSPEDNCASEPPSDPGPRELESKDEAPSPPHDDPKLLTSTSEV


Target: T1, mouse IL-10 receptor (IL-10R) on T cells and B cells of C57BL/6 mouse splenocytes (mouse)
Test: cell-based or functional assay

Row | STAT3 phosphorylation (pY705), flow cytometry, B cells of C57BL/6 mouse splenocytes (CD19 + B cells), EC50 [pM] | STAT3 phosphorylation (pY705), flow cytometry, CD3+ T cells of C57BL/6 mouse splenocytes, EC50 [pM] | Binder
1 | 55.3 | 91.4 | mouse IL-10 (ligand, UniProt P18893 19-178, looked up) SRGQYSREDNNCTHFPVGQSHMLLELRTAFSQVKTFFQTKDQLDNILLTDSLMQDFKGYLGCQALSEMIQFYLVEVMPQAEKHGPEIKEHLNSLGEKLKTLRMRLRRCHRFLPCENKSKAVEQVKSDFNKLQDQGVYKAMNEFDIFINCIEAYMMIKMKS
2 | 120 | 390 | 5KPEG-mIL-10 (ligand, mouse, UniProt P18893 19-178, looked up, conjugated to 5 kD PEG; site of attachment not stated) SRGQYSREDNNCTHFPVGQSHMLLELRTAFSQVKTFFQTKDQLDNILLTDSLMQDFKGYLGCQALSEMIQFYLVEVMPQAEKHGPEIKEHLNSLGEKLKTLRMRLRRCHRFLPCENKSKAVEQVKSDFNKLQDQGVYKAMNEFDIFINCIEAYMMIKMKS
